The target in assay [1] is PIWIL1-R4me2a (Homo sapiens) (UniProt Q96J94). The note with it: cited from earlier work.
The target in assay [2] is PIWIL1-R4me2s (Homo sapiens) (UniProt Q96J94). The note with it: cited from earlier work.
The target of assay [3] is PIWIL1-R4me1 (Homo sapiens) (UniProt Q96J94). The note with it: cited from earlier work.
The target of assay [4] is H3R17me2a. Description: ITC; 20 mM Tris pH 8.0, 200 mM NaCl; 25°C; one-site binding model. Background: Isothermal titration calorimetry measures the heat released or taken up as one component is titrated into another.
Assay [5] concerns the target H3R2me2s. The assay can be described thus: fluorescence polarisation; fluorescein-labeled peptides; 20 mM Tris pH 7.5, 50 mM NaCl, 1 mM DTT, 0.01% Triton X-100; 25°C; one-site binding model; Kd the average of three independent measurements. Background: Fluorescence polarisation rises when a labelled molecule tumbles more slowly, as on binding a larger partner.
The target in assay [6] is H3R2me2a. The assay is described as above.

pKd: −log10 of the molar value.

The term pKd denotes the negative decadic logarithm of the Kd, by convention in mol/L.

SND1 650-910, sequence (Q7KZF4 650-910): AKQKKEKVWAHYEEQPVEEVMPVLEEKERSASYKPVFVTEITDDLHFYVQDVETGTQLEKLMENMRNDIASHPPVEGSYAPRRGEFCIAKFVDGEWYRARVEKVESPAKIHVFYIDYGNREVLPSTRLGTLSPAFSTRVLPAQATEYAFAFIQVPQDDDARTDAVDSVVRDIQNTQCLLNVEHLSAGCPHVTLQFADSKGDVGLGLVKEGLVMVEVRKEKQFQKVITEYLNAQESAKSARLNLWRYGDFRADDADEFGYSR

On to SND1 650-910 (from UniProt Q7KZF4), for which the values for the pKd in assay [1], in assay [2] and in assay [3] were 4.38, 5.00 and 4.72, respectively.
Turning to “TDRD3 (aa 520–633) (from UniProt Q9H7E2 520-633) (domain or fragment)”, the pKd is under 3.00 in assay [4], under 3.30 in assay [5] and under 3.30 in assay [6].

The values are drawn from PMC3281842, “Crystal Structure of TDRD3 and Methyl-Arginine Binding Characterization of TDRD3, SMN and SPF30” (PLoS ONE, 2012).
